Data on 2 molecules can be found in article PMC4742745 (The Journal of Biological Chemistry, 2015).

The target of experiment [1] is T1, recombinant human wild type LCAT protein (lecithin-cholesterol acyltransferase) (human, UniProt P04180 25-440).
T1 construct: human lecithin-cholesterol acyltransferase (EC 2.3.1.43), full-length coding region cloned from liver and brain cDNAs into pDSRa25; also called rLCAT; human rLCAT
T1 sequence (looked up): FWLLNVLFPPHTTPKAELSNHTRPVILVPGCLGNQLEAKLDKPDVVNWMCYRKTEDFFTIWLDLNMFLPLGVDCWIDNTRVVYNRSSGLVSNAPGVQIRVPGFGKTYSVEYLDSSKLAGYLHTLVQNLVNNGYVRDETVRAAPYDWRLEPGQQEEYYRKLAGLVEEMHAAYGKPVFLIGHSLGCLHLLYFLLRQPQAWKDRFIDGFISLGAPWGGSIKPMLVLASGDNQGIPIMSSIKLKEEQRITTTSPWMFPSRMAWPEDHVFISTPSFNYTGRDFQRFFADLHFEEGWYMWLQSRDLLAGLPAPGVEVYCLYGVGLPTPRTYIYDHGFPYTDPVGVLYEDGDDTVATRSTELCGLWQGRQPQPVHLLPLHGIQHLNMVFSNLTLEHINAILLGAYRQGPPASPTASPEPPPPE
The experiment can be described thus: SPR; Biacore 3000, 25 °C, HBS-EP (10 mM HEPES pH 7.4, 150 mM NaCl, 3.0 mM EDTA, 0.05% surfactant P20); mAb captured (100 RU) on goat anti-human IgG Fc amine-coupled to a CM5 chip; LCAT flowed over (human 100 nM to 412 pM, cynomolgus 111 nM to 457 pM, 3-fold dilutions); 1:1 binding model, KD = kd/ka. The settings on record: both partners purified. On the technique in general: Surface plasmon resonance follows binding to a sensor surface in real time, without labels.

In experiment [2] the target is T1, recombinant human wild type LCAT …. The experiment in a line: cell-based or functional assay.

In general, Kd refers to the concentration at which binding is half-saturated. The koff is a measure of how fast the partners let go of each other. As a reminder, the kon is a measure of how fast the partners come together.

B1: 18E5, fully human anti-human LCAT agonistic monoclonal antibody (antibody, V domains shown)
VH: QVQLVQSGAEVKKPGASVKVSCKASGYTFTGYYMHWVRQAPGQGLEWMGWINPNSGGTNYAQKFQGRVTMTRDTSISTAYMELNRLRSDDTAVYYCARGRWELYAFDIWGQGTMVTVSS
VL: EIVLTQSPGTLSLSPGERATLSCRASQSVSGSYLTWYQQKPGQAPRLLIYGASSRATGIPDRFSGSGSGTDFTLTISRLEPEDFAMYYCQQYGGSPPFTFGPGTKVDIKR
notes: VH of 18E5; VL of 18E5 (kappa); Human IgG with kappa light chain (the light chain was amplified with a primer to the human kappa constant region); also called 18E5 mAb; source: XenoMouse hybridoma, purified from clonal hybridoma exhaust supernatants
In the case of B1, in experiment [1], the Kd came out at 1.01 nM, the koff came to 0.000133 s⁻¹ and the kon turned out to be 132000 M⁻¹ s⁻¹.

B2: 27C3, fully human anti-human LCAT agonistic monoclonal antibody (antibody, V domains shown)
VH: QVQLQESGPGLVKPSQTLSLTCTVSGASISSGGYNWSWIRQHPGKGLEWIGYIYYSGSTYYNPSLKSRVTISVDTSKNQFSLKLSSVTAADTAVYYCARERGYCSSTSCSRVMDVWGQGTTVTVSS
VL: SSELTQDPAVSVALGQTVRITCQGDSLRSYYASWYQQKPGQAPVLVIYGKNNRPSGIPDRFSGSSSGNTASLTITGAQAEDEADYYCNSRDNIGNHQVFGGGTKLTVLG
notes: VH of 27C3; VL of 27C3 (lambda); Human IgG2 with lambda light chain; a possible N-linked glycosylation site in heavy chain CDR1; also called 27C3 mAb; 27C3-huIgG2; source: XenoMouse hybridoma, purified from clonal hybridoma exhaust supernatants
Consider B2, for which, in experiment [2], the “increase of the cholesterol esterification activity of native LCAT by 27C3, apoAI-proteoliposomes as substrate” value was determined as 3 fold. The Kd in experiment [1] was 1.32 nM.
